B1: h10A11 IGKV4-1/IGHV3-73 T31A (antibody, name in Kabat numbering, V domains shown)
VH: EVQLVESGGGLVQPGGSLKLSCAASGFAFNAYALYWVRQASGKGLEWVGRIRSKSNNYATYYADSVKDRFTISRDDSKNTAYLQMNSLKTEDTAVYYCTRARFYYSDYGYAMDYWGQGTLVTVSS
VL: DIVMTQSPDSLAVSLGERATINCRSSKSLLHSNGNTYLYWYQQKPGQPPKLLIYRMSNLASGVPDRFSGSGSGTDFTLTISSLQAEDVAVYYCMQHLEYPLTFGQGTKLEIKR
B2: h10A11 IGKV4-1/IGHV3-73 D61E (antibody, name in Kabat numbering, V domains shown)
VH: EVQLVESGGGLVQPGGSLKLSCAASGFAFNTYALYWVRQASGKGLEWVGRIRSKSNNYATYYAESVKDRFTISRDDSKNTAYLQMNSLKTEDTAVYYCTRARFYYSDYGYAMDYWGQGTLVTVSS
VL: DIVMTQSPDSLAVSLGERATINCRSSKSLLHSNGNTYLYWYQQKPGQPPKLLIYRMSNLASGVPDRFSGSGSGTDFTLTISSLQAEDVAVYYCMQHLEYPLTFGQGTKLEIKR
B3: h10A11 IGKV4-1/IGHV3-73 Y35F (antibody, name in Kabat numbering, V domains shown)
VH: EVQLVESGGGLVQPGGSLKLSCAASGFAFNTYALFWVRQASGKGLEWVGRIRSKSNNYATYYADSVKDRFTISRDDSKNTAYLQMNSLKTEDTAVYYCTRARFYYSDYGYAMDYWGQGTLVTVSS
VL: DIVMTQSPDSLAVSLGERATINCRSSKSLLHSNGNTYLYWYQQKPGQPPKLLIYRMSNLASGVPDRFSGSGSGTDFTLTISSLQAEDVAVYYCMQHLEYPLTFGQGTKLEIKR
B4: h10A11 IGKV4-1/IGHV3-73 A60V (antibody, name in Kabat numbering, V domains shown)
VH: EVQLVESGGGLVQPGGSLKLSCAASGFAFNTYALYWVRQASGKGLEWVGRIRSKSNNYATYYVDSVKDRFTISRDDSKNTAYLQMNSLKTEDTAVYYCTRARFYYSDYGYAMDYWGQGTLVTVSS
VL: DIVMTQSPDSLAVSLGERATINCRSSKSLLHSNGNTYLYWYQQKPGQPPKLLIYRMSNLASGVPDRFSGSGSGTDFTLTISSLQAEDVAVYYCMQHLEYPLTFGQGTKLEIKR
B5: h10A11 IGKV4-1/IGHV3-73 I51L (antibody, name in Kabat numbering, V domains shown)
VH: EVQLVESGGGLVQPGGSLKLSCAASGFAFNTYALYWVRQASGKGLEWVGRLRSKSNNYATYYADSVKDRFTISRDDSKNTAYLQMNSLKTEDTAVYYCTRARFYYSDYGYAMDYWGQGTLVTVSS
VL: DIVMTQSPDSLAVSLGERATINCRSSKSLLHSNGNTYLYWYQQKPGQPPKLLIYRMSNLASGVPDRFSGSGSGTDFTLTISSLQAEDVAVYYCMQHLEYPLTFGQGTKLEIKR
B6: h10A11 IGKV4-1/IGHV3-73 L34I (antibody, name in Kabat numbering, V domains shown)
VH: EVQLVESGGGLVQPGGSLKLSCAASGFAFNTYAIYWVRQASGKGLEWVGRIRSKSNNYATYYADSVKDRFTISRDDSKNTAYLQMNSLKTEDTAVYYCTRARFYYSDYGYAMDYWGQGTLVTVSS
VL: DIVMTQSPDSLAVSLGERATINCRSSKSLLHSNGNTYLYWYQQKPGQPPKLLIYRMSNLASGVPDRFSGSGSGTDFTLTISSLQAEDVAVYYCMQHLEYPLTFGQGTKLEIKR
B7: h10A11 IGKV4-1/IGHV3-73 A56V (antibody, name in Kabat numbering, V domains shown)
VH: EVQLVESGGGLVQPGGSLKLSCAASGFAFNTYALYWVRQASGKGLEWVGRIRSKSNNYVTYYADSVKDRFTISRDDSKNTAYLQMNSLKTEDTAVYYCTRARFYYSDYGYAMDYWGQGTLVTVSS
VL: DIVMTQSPDSLAVSLGERATINCRSSKSLLHSNGNTYLYWYQQKPGQPPKLLIYRMSNLASGVPDRFSGSGSGTDFTLTISSLQAEDVAVYYCMQHLEYPLTFGQGTKLEIKR
B8: h10A11 IGKV4-1/IGHV3-73 S52aT (antibody, name in Kabat numbering, V domains shown)
VH: EVQLVESGGGLVQPGGSLKLSCAASGFAFNTYALYWVRQASGKGLEWVGRIRTKSNNYATYYADSVKDRFTISRDDSKNTAYLQMNSLKTEDTAVYYCTRARFYYSDYGYAMDYWGQGTLVTVSS
VL: DIVMTQSPDSLAVSLGERATINCRSSKSLLHSNGNTYLYWYQQKPGQPPKLLIYRMSNLASGVPDRFSGSGSGTDFTLTISSLQAEDVAVYYCMQHLEYPLTFGQGTKLEIKR
B9: h10A11 IGKV4-1/IGHV3-73 K52bR (antibody, name in Kabat numbering, V domains shown)
VH: EVQLVESGGGLVQPGGSLKLSCAASGFAFNTYALYWVRQASGKGLEWVGRIRSRSNNYATYYADSVKDRFTISRDDSKNTAYLQMNSLKTEDTAVYYCTRARFYYSDYGYAMDYWGQGTLVTVSS
VL: DIVMTQSPDSLAVSLGERATINCRSSKSLLHSNGNTYLYWYQQKPGQPPKLLIYRMSNLASGVPDRFSGSGSGTDFTLTISSLQAEDVAVYYCMQHLEYPLTFGQGTKLEIKR
B10: h10A11 IGKV4-1/IGHV3-73 Y55F (antibody, name in Kabat numbering, V domains shown)
VH: EVQLVESGGGLVQPGGSLKLSCAASGFAFNTYALYWVRQASGKGLEWVGRIRSKSNNFATYYADSVKDRFTISRDDSKNTAYLQMNSLKTEDTAVYYCTRARFYYSDYGYAMDYWGQGTLVTVSS
VL: DIVMTQSPDSLAVSLGERATINCRSSKSLLHSNGNTYLYWYQQKPGQPPKLLIYRMSNLASGVPDRFSGSGSGTDFTLTISSLQAEDVAVYYCMQHLEYPLTFGQGTKLEIKR
B11: h10A11 IGKV4-1/IGHV3-73 S52cT (antibody, name in Kabat numbering, V domains shown)
VH: EVQLVESGGGLVQPGGSLKLSCAASGFAFNTYALYWVRQASGKGLEWVGRIRSKTNNYATYYADSVKDRFTISRDDSKNTAYLQMNSLKTEDTAVYYCTRARFYYSDYGYAMDYWGQGTLVTVSS
VL: DIVMTQSPDSLAVSLGERATINCRSSKSLLHSNGNTYLYWYQQKPGQPPKLLIYRMSNLASGVPDRFSGSGSGTDFTLTISSLQAEDVAVYYCMQHLEYPLTFGQGTKLEIKR
B12: h10A11 IGKV4-1/IGHV3-73 S62T (antibody, name in Kabat numbering, V domains shown)
VH: EVQLVESGGGLVQPGGSLKLSCAASGFAFNTYALYWVRQASGKGLEWVGRIRSKSNNYATYYADTVKDRFTISRDDSKNTAYLQMNSLKTEDTAVYYCTRARFYYSDYGYAMDYWGQGTLVTVSS
VL: DIVMTQSPDSLAVSLGERATINCRSSKSLLHSNGNTYLYWYQQKPGQPPKLLIYRMSNLASGVPDRFSGSGSGTDFTLTISSLQAEDVAVYYCMQHLEYPLTFGQGTKLEIKR
B13: h10A11 IGKV4-1/IGHV3-73 R50K (antibody, name in Kabat numbering, V domains shown)
VH: EVQLVESGGGLVQPGGSLKLSCAASGFAFNTYALYWVRQASGKGLEWVGKIRSKSNNYATYYADSVKDRFTISRDDSKNTAYLQMNSLKTEDTAVYYCTRARFYYSDYGYAMDYWGQGTLVTVSS
VL: DIVMTQSPDSLAVSLGERATINCRSSKSLLHSNGNTYLYWYQQKPGQPPKLLIYRMSNLASGVPDRFSGSGSGTDFTLTISSLQAEDVAVYYCMQHLEYPLTFGQGTKLEIKR
B14: h10A11 IGKV4-1/IGHV3-73 Y59F (antibody, name in Kabat numbering, V domains shown)
VH: EVQLVESGGGLVQPGGSLKLSCAASGFAFNTYALYWVRQASGKGLEWVGRIRSKSNNYATYFADSVKDRFTISRDDSKNTAYLQMNSLKTEDTAVYYCTRARFYYSDYGYAMDYWGQGTLVTVSS
VL: DIVMTQSPDSLAVSLGERATINCRSSKSLLHSNGNTYLYWYQQKPGQPPKLLIYRMSNLASGVPDRFSGSGSGTDFTLTISSLQAEDVAVYYCMQHLEYPLTFGQGTKLEIKR
B15: h10A11 IGKV4-1/IGHV3-73 R52K (antibody, name in Kabat numbering, V domains shown)
VH: EVQLVESGGGLVQPGGSLKLSCAASGFAFNTYALYWVRQASGKGLEWVGRIKSKSNNYATYYADSVKDRFTISRDDSKNTAYLQMNSLKTEDTAVYYCTRARFYYSDYGYAMDYWGQGTLVTVSS
VL: DIVMTQSPDSLAVSLGERATINCRSSKSLLHSNGNTYLYWYQQKPGQPPKLLIYRMSNLASGVPDRFSGSGSGTDFTLTISSLQAEDVAVYYCMQHLEYPLTFGQGTKLEIKR
B16: h10A11 IGKV4-1/IGHV3-73 Y32F (antibody, name in Kabat numbering, V domains shown)
VH: EVQLVESGGGLVQPGGSLKLSCAASGFAFNTFALYWVRQASGKGLEWVGRIRSKSNNYATYYADSVKDRFTISRDDSKNTAYLQMNSLKTEDTAVYYCTRARFYYSDYGYAMDYWGQGTLVTVSS
VL: DIVMTQSPDSLAVSLGERATINCRSSKSLLHSNGNTYLYWYQQKPGQPPKLLIYRMSNLASGVPDRFSGSGSGTDFTLTISSLQAEDVAVYYCMQHLEYPLTFGQGTKLEIKR
B17: h10A11 IGKV4-1/IGHV3-73 V63L (antibody, name in Kabat numbering, V domains shown)
VH: EVQLVESGGGLVQPGGSLKLSCAASGFAFNTYALYWVRQASGKGLEWVGRIRSKSNNYATYYADSLKDRFTISRDDSKNTAYLQMNSLKTEDTAVYYCTRARFYYSDYGYAMDYWGQGTLVTVSS
VL: DIVMTQSPDSLAVSLGERATINCRSSKSLLHSNGNTYLYWYQQKPGQPPKLLIYRMSNLASGVPDRFSGSGSGTDFTLTISSLQAEDVAVYYCMQHLEYPLTFGQGTKLEIKR
B18: h10A11 IGKV4-1/IGHV3-73 T57S (antibody, name in Kabat numbering, V domains shown)
VH: EVQLVESGGGLVQPGGSLKLSCAASGFAFNTYALYWVRQASGKGLEWVGRIRSKSNNYASYYADSVKDRFTISRDDSKNTAYLQMNSLKTEDTAVYYCTRARFYYSDYGYAMDYWGQGTLVTVSS
VL: DIVMTQSPDSLAVSLGERATINCRSSKSLLHSNGNTYLYWYQQKPGQPPKLLIYRMSNLASGVPDRFSGSGSGTDFTLTISSLQAEDVAVYYCMQHLEYPLTFGQGTKLEIKR
B19: h10A11 IGKV4-1/IGHV3-73 Y58F (antibody, name in Kabat numbering, V domains shown)
VH: EVQLVESGGGLVQPGGSLKLSCAASGFAFNTYALYWVRQASGKGLEWVGRIRSKSNNYATFYADSVKDRFTISRDDSKNTAYLQMNSLKTEDTAVYYCTRARFYYSDYGYAMDYWGQGTLVTVSS
VL: DIVMTQSPDSLAVSLGERATINCRSSKSLLHSNGNTYLYWYQQKPGQPPKLLIYRMSNLASGVPDRFSGSGSGTDFTLTISSLQAEDVAVYYCMQHLEYPLTFGQGTKLEIKR
B20: h10A11 IGKV4-1/IGHV3-73 A33V (antibody, name in Kabat numbering, V domains shown)
VH: EVQLVESGGGLVQPGGSLKLSCAASGFAFNTYVLYWVRQASGKGLEWVGRIRSKSNNYATYYADSVKDRFTISRDDSKNTAYLQMNSLKTEDTAVYYCTRARFYYSDYGYAMDYWGQGTLVTVSS
VL: DIVMTQSPDSLAVSLGERATINCRSSKSLLHSNGNTYLYWYQQKPGQPPKLLIYRMSNLASGVPDRFSGSGSGTDFTLTISSLQAEDVAVYYCMQHLEYPLTFGQGTKLEIKR
B21: h10A11 IGKV4-1/IGHV3-73 N53Q (antibody, name in Kabat numbering, V domains shown)
VH: EVQLVESGGGLVQPGGSLKLSCAASGFAFNTYALYWVRQASGKGLEWVGRIRSKSQNYATYYADSVKDRFTISRDDSKNTAYLQMNSLKTEDTAVYYCTRARFYYSDYGYAMDYWGQGTLVTVSS
VL: DIVMTQSPDSLAVSLGERATINCRSSKSLLHSNGNTYLYWYQQKPGQPPKLLIYRMSNLASGVPDRFSGSGSGTDFTLTISSLQAEDVAVYYCMQHLEYPLTFGQGTKLEIKR

target: human CCR8 (human) (UniProt P51685); assay: cell-based or functional assay
Sequence (P51685 whole entry): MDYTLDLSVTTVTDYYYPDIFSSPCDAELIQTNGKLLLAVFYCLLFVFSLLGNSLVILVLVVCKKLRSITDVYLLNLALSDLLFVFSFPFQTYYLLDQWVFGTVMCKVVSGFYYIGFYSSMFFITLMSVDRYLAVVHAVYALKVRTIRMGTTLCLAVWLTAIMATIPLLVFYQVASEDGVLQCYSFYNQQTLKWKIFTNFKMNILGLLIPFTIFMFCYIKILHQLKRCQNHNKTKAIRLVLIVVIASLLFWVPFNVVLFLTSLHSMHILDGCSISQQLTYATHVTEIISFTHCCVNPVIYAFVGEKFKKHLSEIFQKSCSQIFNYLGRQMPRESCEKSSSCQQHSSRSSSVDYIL

Binder | IC50 ratio (WT IC50/mutant IC50) | IC50 (n.d.: 10 nM or more) [nM]
B1 | 0.17 | 
B2 | 0.25 | 
B3 |  | > 10
B4 | 0.67 | 
B5 | 0.22 | 
B6 | 0.43 | 
B7 | 0.55 | 
B8 | 0.22 | 
B9 | 0.47 | 
B10 | 0.47 | 
B11 | 0.53 | 
B12 | 1.6 | 
B13 | 0.12 | 
B14 | 0.03 | 
B15 |  | > 10
B16 | 0.44 | 
B17 | 0.56 | 
B18 | 0.49 | 
B19 | 0.5 | 
B20 |  | > 10
B21 | 0.03 | 
